According to the domain aggregation screens of Martell et al. (2025):

Assay: soluble fraction after stress (log2 fold change); higher = more stays soluble; pooled small domains, quantitative proteomics
Details: stress: 50 degC
Method in brief: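 Pooled custom libraries of small protein domains were each held under stress at 50°C. The read-out, high-throughput quantitative proteomics, tracked how much of each protein stayed soluble. This is reported as a base-two log fold change used to indicate aggregation propensity. Higher values mean more protein remains in solution.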

Row | Sequence | soluble fraction (log2)
1 | HMVTTLLIINVAGKVKNPGVYQLPPGSRVVDALEAAGQQLKGVDISDINLARVLVDGEQILIGSN | -1.86
2 | HMEQETVTVPDLVGKDVVAAQAELHEMGLSGKPDGTGTTVVSQFPVAGARVLKHTNVILYTED | -0.0147
3 | HMIGIGSDVPNKLKPAIYSFGLVAVGEKSVIPDGVQIGKNTAVSGVTSKEDYPDGVLESGETLIKA | 0.0103
4 | HMLPELIVTTKKGVTVTVTNGVITYSATSNGKATFTVPNYGKWTVSATINGTVISKVVDVTEAKQIPVLLG | 0.196
5 | HMKKVSVKPILELRAAGISMRKIETLMHVSRHTISAIYKAADAYSISWDNVKDFDEDKIYEMLFPPTP | -1.94
6 | HMKSLLDQINGIGAIRKRALLNHFGSARAVESASLDEIKSVEGVEAKVAKKIYNFFHEYKNMLR | -1.12
7 | HMHQAVTVTKPARLFTGPDGKGVVRSLDVGMMLYPTGEKQGMMWEVEDELGNKGWVSSTLLELS | 0.207
8 | HMIELEGVISSVLAGTMFKVKLRGNGHEVLAHISGKMRKKFIRLVIGDAVKIEMSPYDMDKARIVYRI | -0.00875
9 | HMGEVISRSYPLLKTKAKPAEVSEALQKLIKAPATVTFDEKNEVFHINATRLQHTWAEGYFKGLHGK | 0.0333
10 | HMAPAGGITRQDLFAWGLMGGEGSREKRQQLKKSLGLPSHLGTSGFLDALNLIATRDQVEALLHK | -0.15
11 | HMSPSLVEAMRLRMYEMGLNQAKLSELLGVSPSRVSDYLTGRSEPTLKVARDISRKLNIDASIVLG | -1.07
12 | HMTGTKEQQVVMLNNILQKQLQAFELQGKRDYPMVTMKNMYNTLSKMVENAGLQTVESYFVDPIKGQQM | -0.0334
13 | HMGLTYEQILTDVQRFVTQNHADTLSNEGNPEEARKLLKDYILQYVQNRSYHVDGQTTEELVDSLYED | -0.195
14 | HMSELDASYLGQRVRYVSGFTETDPSEGLVEFRGSNWRARAEHPPLDHSGHWVIVKVESNTLWVEEKSN | -0.22
15 | HMLPVLEIGTMIRIIRQPHFGTIARVVALPEELTKVESETLVRILDAEFDDGTRVRIPRANVEVIE | -1.25
16 | HMNDTNEEAVLSIILKNPQATQGAIAKEVGASLSTVKRIMRNLQKSGKLRREGTNRNGSWVVTGQK | 0.0846
17 | HMKQAINFSDLNSLEEGLGIAIRQKWNEVSINDVPEDKIELVEDWINNNRGKYKGINISIGSTY | 0.167
18 | HMSKTEEIAYTTFVKYLENKDIEEVYLGNNAKIKVILKDGREMITDNPRTADFKKDLLLHDIKVVEKT | 0.219
19 | HMRTEGNLGAKVRVLRRSQGMTQAELARRLGISPSYLNLIEHNRRSFTADLLVKLAKILPVNLKT | -1.36
20 | HMISLNEDQKLAILNEWNQRPDDPPFIKELIELVFPDIPEEAKTGRSRYGIAIKKFLAEKSLQAKV | -0.305
21 | HMVVMEIGANGSEVVKLQKRLNQLGYYTEHASGVYDVKTASAVNEFQRQNELNATGKADYTTLDMIYNQ | 0.02
22 | HMEYDYKVIDFFKDYYSYLNYQEIEPNILDKQLTTLTEEESAKIAGIMKLDYEDFTRGIEIVTGS | -0.195
23 | HMNSLQLGSRGPTVSALQAKLNTMLVPSPRLVADGSFGPKTAQAVKAFQQMKRLVADGVVGPKTAAALGLS | -0.00877
24 | HMTYSAWIEKAYSELEKKGITEAELSDALDKRGINLEDLKLMGPDEAVKYQSEVEGVVLELSKSKE | -0.0868
25 | HMSDVVFRINANGLNVSGLANGERVSVYDTTGKLVTTAVSTQDNGTLNLPLKQSGGIYIARTQSGVSFKFT | -0.411
26 | HMALPRYFFRTRENGAVLFKTPVNNHQNRLEMHQIAAINIRNETVKPLGDTVLTDEETELIADWMRERKTV | -0.72

Row | Sequence | soluble fraction (log2)
27 | HMPSDTNLIGKTGIAYTTLRPGGTALIDDRKVDVVADSEYIEKDKKIKVIRVEGIKVVVTAVK | 0.091
28 | HMQNGNLVDVYLNWRGKYYAIKMFFPNSKMPRRSDVQDQIVKVYPDARVQSFQVSKYVPGQPFL | -1.62
29 | HMSFSSLSNDILSEIQKDNNITYDELSEKLQKDRATIYRNMKKLVENGLLKRVGGRKSGHWEIIE | 0.189
30 | HMAQLSDMLTYLRKRKGLSQQELANTLKISRSAIGMYETGKREPDLETLEVFADFYNVDMNTLTGKA | -0.143
31 | HMKKGATVSGVIVEKTKKSLIIDLGAKTEGVVADKEFEFAIDFVKELKKGDEVKAIVISTDNDKGQVVLSL | -0.155
32 | HMSVDDEQLLKIIDDIFQQNPQAVTDAKTDSNAIHFLIGQVMKETKGHADHAISKEIIEKKLS | 0.00481
33 | HMQAMDYEGFKKEILKMSDIDLSLYKEKQMKRRIDSLIRKNGYEHYEDYVQALKQDSGLYNEFINYLTI | 0.439
34 | HMKSKNILLGEYKGKEVHVGEGKYGPFILYDKKFKSIGAYLTENSLMLKDLTIEDYSKIMKFTENSNSKS | -0.651
35 | HMSLPTYVQISEAIARRITAGQWLDGERLPPERTMAAEFGVAVGTLRKALSRLQDQKLLRRLQGSGNYINI | -1.57
36 | HMDYKSKLQELVQTEKRTVEYKLVDESGPAHNKSFTFEVVISGIKYGSGTGASKKIAEQNAAKEALEKLA | -0.0871
37 | HMDSTSEILKVIQNIVKKEDPYHPLSDDKISNLLNDLDYQISRRTVAKYRDILTIPSSSKRRKL | -0.432
38 | HMRSVEVAAEPGMVLEDRQTGFVGAVVAVEKSGGTHLVVLEDRHGLRRGFPLGPGFWLEGRPVVLAPPP | -0.227
39 | HMAELAKAKLDAAVQVALLKAGALDTDYLAYKLQGMDGVALDDKGSLTGWDTTLETLKSQYPTQFA | -0.302
40 | HMDVNLSIRSGETIGIIGSTGSAKSTLVQLIPRLYDTTEGEVLVGGVNVKNYDLEALRNSVAMVLQKN | -0.066
41 | HMKTGNPYAQRNTADMYNYGRGIEKDSYLAFVWYFAAYKQGNDNAKPQIDSITASGHLSPNQQLHAKIE | -0.464
42 | HMEGPALKVWKARYLRAAILEQLLSDRWDDRGGQPIRVVVNEPTNSLLIRIPRHLWPEAEKLLQELDQR | -1.02
43 | HMLDYKSALQELLQAQRRSRPRYEVISTEGPDHERVFEVAVWLDNEELGRGKGRSKREAEHQAAQAALTQL | 0.068
44 | HMDNTSNVEKTLRFIRQRGKVSRKEVETLLGSSKFPAISALNELLAENKIVKTGSGPAVRYSVS | -0.0887
45 | HMNDSGIIGVVINDHEKYEGHVLEDGFISSSLSALSREIDVAGYFMMVKTVVYEGFFQELKGIGNV | -0.00726
46 | HMDPSVTGLLTRLGISPQTAQELAGQYEEPYILEKIAIVEAHPEYVKNAAGFVITALQEDWKD | -0.255
47 | HMVDDTGLPTVLISDGRLLERNLHRLHLDHTWLQRRLEENNIPSIQSLFLLTVDKQHQLYFLKK | -1.21
48 | HMDGVNRDKIEYRLDDLYYLKGSDAPYTGKVFEEWSGQQRVETNYIDGKLDGLSESWHENGQKASEVNY | 0.345
49 | HMKSAIGEEKAENFAFADLGMDPLSAEGVRTEFGFEQGQFVYKVYFTADGTEYEYWIKASDGSVVKKGMDL | -0.891
50 | HMENSYSVEDLALKAAISVDTIRYYQGLGLISPPQKNGRRAIYGNDHISRLEEIKKLAFEGFSLRQISLL | -0.224
51 | HMDQAEDVLSIPVDALMRGNQVYIKDDTVTEQQGPIPAGFKAVEVETGLISDSYVEIKSGLSEGDTVYVAE | 0.141
52 | HMFGEKEFYQWIGKTAGEKFSGLPAAVIKSLYKYWREYNLSEEDIMGFIRQTELLPKRTPLDVELFFEK | -0.456

Row | Sequence | soluble fraction (log2)
53 | HMSDGDFLQKIAEEILAQFPDKVKEYQKGKKGLIGFFMGELMKRSKGKADPKVATRILEEILSEKNGSS | 0.17
54 | HMDGKTALQEIVASSGWSPPEYKVSESGPDHDKDFVAYAIVNGVAYPEGHGKSKREAEQVAARIAFEALSK | -0.18
55 | HMETYHIQMKGDPSKGIVGFSQLDMVIDKIKRLETEKGIAPYELEVLDGDTMEKYSGEEFLTMHE | 0.0939
56 | HMATPEINNLGRLRNAINQSNVNWHQIIKRLQNEYPNNWRQILIAIDRHDLLFRYDVENYIKYG | -1.56
57 | HMRGFTDFEHIEKEYLATIEKLNWPDGVTLPDKLEGEDTGTSFQVGYGDTRASNLWEYSWMK | -0.0186
58 | HMGQSKNERMLELVELLNKASRSYYQDAQEIMSNYEYDRLYDELQNLEKELGITLSNSPTVN | -0.0536
59 | HMGTYSKQDLLQLIGRYPDGIGKREINLAFSKGTKIRNLLNIELNELLNERLITLSQGGLYIKP | -1.56
60 | HMFGDQMQSYLSRLSQIDVDIIALKYGDNFTYREIGLILEMSEDSVRQRAVRARKKLETMIQKG | -3.1
61 | HMSNGEWQQGSDGRWWYKFSDGTYPKNKVETIGGKKYGFDSEGWMLANTTKEFSGTTYSFGADGVATS | 0.158
62 | HMKIETVENPLLERTEISALFDSKSGSLTRKEAIDLISKKARIDSSTVYAIKLSNSSGSTRIIGLFY | 0.0692
63 | HMVWPETEAIVTEDFIGKKRSEVQQEGVIFEFFGEGDMVIDQLPRGGVTLNESGRVWIYLGEDTF | -0.423
64 | HMAHSDEAWSVARRVARELDKILDGAGPRRTALVRAAAELRLSTRQIYNLLARYRADRTVTSLLPRR | -0.316
65 | HMGVYDLIYLGYGINVEKEELVDQNISIIRRYANIFDPNGDIKGSTNPTYASNTAVLFNEAKFIIDGYD | -3.65
66 | HMENNIPANIKALIISYVNQNYPGAVIHSIERNSNGTYDVEIYYNNREYDLLFDAQGNFISGNVDDQ | 0.0611
67 | HMRLPNGYGSITKLSGKRRKPFMVRITTGYDNEGKQLMSVLGYYATRTEALAVLAEYNKNPYNPI | -2.57
68 | HMGVKIELNENEQAIFAAMQKQVEAVLPDLRAQFADMSNKAWDNSVKTLTKNNLLKVSKEAEILFIRL | -0.718
69 | HMIISMKKGATPQEISHVRKLIEELGYKVHESQGSERMVFGAIGDERSKHRLTSLEAQPGVEKVIPILA | 0.191
70 | HMAYMETIERVEALAPGTKFNLKALFGTDWTQSRGTKLTLGKTFYEMVESGYVKTAKVLGKDSSNIMQYER | -0.107
71 | HMTKPLHELLSQREFQVFTQLAAGRSVGEIAQQLSLSSNTVSTYRARILEKTGTRNDVELALYAIRR | -1.52
72 | HMTADIRFLNSRKFYIYKVEKGETLFSISQKFNIPQEEIIQFNKDINQQGLKAKTKLWVPAYSWL | -3.38
73 | HMWNPVLVVRGDFPKDLATTLLKMIFAQKEALNPHILFQNLLRTDNITFRESYPYHSASKTMFRF | -0.148
74 | HMLKNKSTGNINETKAILELALNHSHFKVFDNRDMTVTFKNLATQFTTMQRILVQMFFPLPAGVELIIE | ≥ 0.62
75 | HMNLEIGAIIKSLRAKHKYTQEQLSAFLGVTPQAVSRWEAGNGYPDIELLPAIARFFEVSTDELLGL | -0.428
76 | HMSGSFDVTLDYLNSLRNLYPAIDVEQEFRKMYAWLDSNPKNRKTERGIKRFITGWLGRAQDKAP | -1.12
